According to publication PMC4588886, “A link between magnesium-chelatase H subunit and sucrose nonfermenting 1 (SNF1)-related protein kinase SnRK2.6/OST1 in Arabidopsis guard cell signalling in response to abscisic acid” (Journal of Experimental Botany, 2015):

How the values were obtained:
[1] = target: T1, GST-tagged C-terminal half of ABAR protein (aa 681-1381) (Arabidopsis thaliana, UniProt Q9FNB0 681-1381); test: SPR
T1 chain: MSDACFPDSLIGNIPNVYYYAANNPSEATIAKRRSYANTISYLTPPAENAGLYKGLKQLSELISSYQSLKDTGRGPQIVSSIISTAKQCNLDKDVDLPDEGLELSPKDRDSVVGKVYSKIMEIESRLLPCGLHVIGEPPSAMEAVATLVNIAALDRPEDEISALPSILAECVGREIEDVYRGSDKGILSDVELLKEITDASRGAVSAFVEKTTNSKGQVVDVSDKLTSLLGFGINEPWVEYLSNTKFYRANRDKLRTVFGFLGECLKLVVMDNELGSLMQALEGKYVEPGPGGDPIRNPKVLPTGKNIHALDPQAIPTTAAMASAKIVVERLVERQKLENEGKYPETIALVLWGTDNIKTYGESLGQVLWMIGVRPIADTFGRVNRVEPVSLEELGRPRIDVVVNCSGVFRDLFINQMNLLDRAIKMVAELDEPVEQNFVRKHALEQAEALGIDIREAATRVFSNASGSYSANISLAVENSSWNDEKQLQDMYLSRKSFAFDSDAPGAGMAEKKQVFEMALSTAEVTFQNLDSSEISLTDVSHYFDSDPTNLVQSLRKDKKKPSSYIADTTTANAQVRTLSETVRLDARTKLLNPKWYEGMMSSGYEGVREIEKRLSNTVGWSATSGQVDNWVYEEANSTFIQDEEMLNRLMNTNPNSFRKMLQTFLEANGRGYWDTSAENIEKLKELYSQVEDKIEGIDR

[2] = target: T2, GST-tagged C-terminal half of ABAR protein (aa 681-1381) (Arabidopsis thaliana, UniProt Q9FNB0 681-1381); test: pull-down; GST-tagged ABAR (aa 681-1381, 1 ug) or GST alone added to E. coli lysate expressing His-tagged OST1; glutathione-sepharose 4B beads, 4 °C, 12 h; 10 mM Tris-HCl pH 7.5, 200 mM NaCl, 10% glycerol; blot with anti-His; details: one partner purified
T2 construct: Cloned into pGEX-4T-1; also called GST-ABAR; recombinant truncated ABAR protein; source: E. coli BL21(DE3), purified (Sepharose 4B)
T2 sequence (looked up): T1 chain

- Kd [1]: ~71.4 nM
- binding result [2]: binds
B1: His-tagged OST1 protein (recombinant, full-length ORF) (enzyme, Arabidopsis thaliana, UniProt Q940H6 1-362, looked up)
chain: MDRPAVSGPMDLPIMHDSDRYELVKDIGSGNFGVARLMRDKQSNELVAVKYIERGEKIDENVKREIINHRSLRHPNIVRFKEVILTPTHLAIVMEYASGGELFERICNAGRFSEDEARFFFQQLISGVSYCHAMQVCHRDLKLENTLLDGSPAPRLKICDFGYSKSSVLHSQPKSTVGTPAYIAPEVLLKKEYDGKVADVWSCGVTLYVMLVGAYPFEDPEEPKNFRKTIHRILNVQYAIPDYVHISPECRHLISRIFVADPAKRISIPEIRNHEWFLKNLPADLMNDNTMTTQFDESDQPGQSIEEIMQIIAEATVPPAGTQNLNHYLTGSLDIDDDMEEDLESDLDDLDIDSSGEIVYAM
notes: SNF1-related protein kinase SnRK2.6/OST1/SRK2E, Arabidopsis thaliana, At4g33950, full-length ORF; Cloned into pET-48b(+); also called recombinant OST1; SnRK2.6; source: E. coli BL21(DE3): in cell lysate (pull-down); purified (Ni-NTA agarose)
